Experimental data published in US20250281611A1 (BIOSCEPTRE AUST, published 2025).

T1: CD19 (UniProt P15391 20-556, limits assumed)
T1 construct: whole, on cells; also called CD19 on JeKo-1
T1 sequence (looked up): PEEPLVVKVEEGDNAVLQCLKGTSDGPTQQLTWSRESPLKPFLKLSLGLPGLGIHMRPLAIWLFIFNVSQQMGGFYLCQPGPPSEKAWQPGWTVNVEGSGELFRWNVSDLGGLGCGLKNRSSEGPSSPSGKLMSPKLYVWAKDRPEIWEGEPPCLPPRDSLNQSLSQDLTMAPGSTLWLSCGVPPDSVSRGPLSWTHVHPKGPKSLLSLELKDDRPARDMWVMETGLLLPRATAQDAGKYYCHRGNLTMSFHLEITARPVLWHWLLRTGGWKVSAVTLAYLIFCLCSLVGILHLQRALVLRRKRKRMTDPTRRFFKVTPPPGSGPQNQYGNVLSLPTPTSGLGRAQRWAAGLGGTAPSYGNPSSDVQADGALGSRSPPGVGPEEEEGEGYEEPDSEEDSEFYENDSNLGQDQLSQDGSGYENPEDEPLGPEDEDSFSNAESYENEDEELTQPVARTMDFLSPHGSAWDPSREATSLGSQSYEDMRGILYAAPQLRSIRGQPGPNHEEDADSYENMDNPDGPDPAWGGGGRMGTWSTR


What was measured:
nfP2X7 CAR 1 [1] = target: T2, nfP2X7 CAR 1; test: flow cytometry, nfP2X7 CAR 1 T cells (EGFR+ gate), anti-His-FITC detection
T2 construct: CAR-positive cells gated by the co-expressed EGFR marker; also called nfP2X7 targeted CAR; nfP2X7 CAR on EGFR+ T cells
Method: (§1) nfP2X₇ CAR T cells were incubated with different BRiDGE variants at saturating concentrations. […] The MFI intensity correlates with the number of secondary bound antibodies bound to the BRiDGEs that are only detected if they are bound to the CAR T cells. EGFR was used as a marker gene to detect the CAR expression. Thus, the EGFR+ T cell population was defined as the CAR expressing cells and the EGFR− T cell population was defined as the CAR negative subset. MFI: median fluorescence intensity. EGFR: epidermal growth factor receptor. BLItz: Bio-Layer interferometry (BLI) technology using HIS-tag identification tips. HIS-tag MFI Ratio: relative index that is calculated by the testing condition MFI divided by the control MFI, which corresponds to the MFI measured on EGFR+ T cells (defined as CAR positive cells) divided by the MFI measured on the EGFR− T cells (defined as CAR negative cells). […] The higher the MFIR, the stronger the binding.

nfP2X7 CAR 1 [2] = target: T2, nfP2X7 CAR 1; test: flow cytometry, anti-His-FITC, MFI on EGFR+ (CAR+) over EGFR- (CAR-) T cells
Method: as §1

nfP2X7 CAR 1 [3] = target: T2, nfP2X7 CAR 1; test: flow cytometry, anti-His-FITC, MFI on EGFR+ (CAR+) T cells over background 0.44
Method: as §1

CD19 [4] = target: T1, CD19; test: flow cytometry, JeKo-1 cells, BIL03s-AF647 detection, MFI over no-bridge control
Method: (§2) JeKo-1 cells were incubated with different CD19 BRiDGE variants at saturating concentrations. […] The MFI intensity correlates with the number of secondary bound antibodies bound to the CD19 BRiDGE variants that are only detected if they are bound to the JeKo-1 cells. MFI: median fluorescence intensity. BLitz: Bio-Layer interferometry (BLI) technology using HIS-tag identification tips. […] The higher the MFIR, the stronger the binding.

CD19 [5] = target: T1, CD19; test: flow cytometry, JeKo-1 cells, bridge at saturating conc., BIL03s-AF647 detection
Method: as §2

CD19 [6] = target: T1, CD19; test: flow cytometry, JeKo-1 cells, anti-His-FITC detection, MFI over no-bridge control
Method: as §2

CD19 [7] = target: T1, CD19; test: flow cytometry, JeKo-1 cells, bridge at saturating conc., anti-His-FITC detection
Method: as §2

Binder	MFI HisTag FITC in EGFR+ Population (nfP2X7 CAR 1 [1])	HisTag MFI Ratio of EGFR+/EGFR- (nfP2X7 CAR 1 [2])	HisTag MFI Ratio (background 0.44) (nfP2X7 CAR 1 [3])	MFIR BIL03 AF647 (CD19 [4])	MFI Bil03 AF647 (CD19 [5])	MFIR HisTag FITC (CD19 [6])	MFI HisTag FITC (CD19 [7])
CD19 BRIDGE variant B4 (Fab) heavy: EVQLVESGGGLVKPGGSLKLSCAASGYTFTSYVMHWVRQAPGKGLEWIGYINPYNDGTKYNEKFQGRVTISSDKSISTAYMELSSLRSEDTAMYYCARGTYYYGTRVFDYWGQGTLVTVSSASTKGPSVFPLAPSSKSTSGGTAALGCLVKDYFPEPVTVSWNSGALTSGVHTFPAVLQSSGLYSLSSVVTVPSSSLGTQTYICNVNHKPSNTKVDKKVEPKSCHHHHHH light: GHNYTTRNILPGLNITSTFHKTSGSGKEPKSSDKTHTDIVMTQSPATLSLSPGERATLSCRSSKSLQNVNGNTYLYWFQQKPGQSPQLLIYRMSNLNSGVPDRFSGSGSGTEFTLTISSLEPEDFAVYYCMQHLEYPITFGAGTKLEIKRTVAAPSVFIFPPSDEQLKSGTASVVCLLNNFYPREAKVQWKVDNALQSGNSQESVTEQDSKDSTYSLSSTLTLSKADYEKHKVYACEVTHQGLSSPVTKSFNRGEC	2.05	4.1	4.7	19.6	9.02	5.05	3.89
CD19 BRIDGE variant B5 (Fab) heavy: EVQLVESGGGLVKPGGSLKLSCAASGYTFTSYVMHWVRQAPGKGLEWIGYINPYNDGTKYNEKFQGRVTISSDKSISTAYMELSSLRSEDTAMYYCARGTYYYGTRVFDYWGQGTLVTVSSASTKGPSVFPLAPSSKSTSGGTAALGCLVKDYFPEPVTVSWNSGALTSGVHTFPAVLQSSGLYSLSSVVTVPSSSLGTQTYICNVNHKPSNTKVDKKVEPKSCHHHHHH light: GHNYTTRNILPGLNITSTFHKTSGSGKGSEPKSSDKTHTDIVMTQSPATLSLSPGERATLSCRSSKSLQNVNGNTYLYWFQQKPGQSPQLLIYRMSNLNSGVPDRFSGSGSGTEFTLTISSLEPEDFAVYYCMQHLEYPITFGAGTKLEIKRTVAAPSVFIFPPSDEQLKSGTASVVCLLNNFYPREAKVQWKVDNALQSGNSQESVTEQDSKDSTYSLSSTLTLSKADYEKHKVYACEVTHQGLSSPVTKSFNRGEC	2.08	4.2	4.7	12	5.5	4.42	3.4
CD19 BRIDGE variant B10 (Fab) heavy: EVQLVESGGGLVKPGGSLKLSCAASGYTFTSYVMHWVRQAPGKGLEWIGYINPYNDGTKYNEKFQGRVTISSDKSISTAYMELSSLRSEDTAMYYCARGTYYYGTRVFDYWGQGTLVTVSSASTKGPSVFPLAPSSKSTSGGTAALGCLVKDYFPEPVTVSWNSGALTSGVHTFPAVLQSSGLYSLSSVVTVPSSSLGTQTYICNVNHKPSNTKVDKKVEPKSCHHHHHH light: GHNYTTRNILPGLNITSTFHKTSGSGKEPKSSDKTHTGSDIVMTQSPATLSLSPGERATLSCRSSKSLQNVNGNTYLYWFQQKPGQSPQLLIYRMSNLNSGVPDRFSGSGSGTEFTLTISSLEPEDFAVYYCMQHLEYPITFGAGTKLEIKRTVAAPSVFIFPPSDEQLKSGTASVVCLLNNFYPREAKVQWKVDNALQSGNSQESVTEQDSKDSTYSLSSTLTLSKADYEKHKVYACEVTHQGLSSPVTKSFNRGEC	2.26	4.3	5.1	16.8	7.71	4.25	3.27
CD19 BRIDGE variant B6 (Fab) heavy: EVQLVESGGGLVKPGGSLKLSCAASGYTFTSYVMHWVRQAPGKGLEWIGYINPYNDGTKYNEKFQGRVTISSDKSISTAYMELSSLRSEDTAMYYCARGTYYYGTRVFDYWGQGTLVTVSSASTKGPSVFPLAPSSKSTSGGTAALGCLVKDYFPEPVTVSWNSGALTSGVHTFPAVLQSSGLYSLSSVVTVPSSSLGTQTYICNVNHKPSNTKVDKKVEPKSCHHHHHH light: GHNYTTRNILPGLNITSTFHKTSGSGKGGGSEPKSSDKTHTDIVMTQSPATLSLSPGERATLSCRSSKSLQNVNGNTYLYWFQQKPGQSPQLLIYRMSNLNSGVPDRFSGSGSGTEFTLTISSLEPEDFAVYYCMQHLEYPITFGAGTKLEIKRTVAAPSVFIFPPSDEQLKSGTASVVCLLNNFYPREAKVQWKVDNALQSGNSQESVTEQDSKDSTYSLSSTLTLSKADYEKHKVYACEVTHQGLSSPVTKSFNRGEC	1.99	4.1	4.5	11.5	5.29	4.32	3.33
CD19 BRIDGE variant B11 (Fab) heavy: EVQLVESGGGLVKPGGSLKLSCAASGYTFTSYVMHWVRQAPGKGLEWIGYINPYNDGTKYNEKFQGRVTISSDKSISTAYMELSSLRSEDTAMYYCARGTYYYGTRVFDYWGQGTLVTVSSASTKGPSVFPLAPSSKSTSGGTAALGCLVKDYFPEPVTVSWNSGALTSGVHTFPAVLQSSGLYSLSSVVTVPSSSLGTQTYICNVNHKPSNTKVDKKVEPKSCHHHHHH light: GHNYTTRNILPGLNITSTFHKTSGSGKGSEPKSSDKTHTGSDIVMTQSPATLSLSPGERATLSCRSSKSLQNVNGNTYLYWFQQKPGQSPQLLIYRMSNLNSGVPDRFSGSGSGTEFTLTISSLEPEDFAVYYCMQHLEYPITFGAGTKLEIKRTVAAPSVFIFPPSDEQLKSGTASVVCLLNNFYPREAKVQWKVDNALQSGNSQESVTEQDSKDSTYSLSSTLTLSKADYEKHKVYACEVTHQGLSSPVTKSFNRGEC	2	4	4.5	14	6.43	4	3.08
CD19 BRIDGE variant B8 (Fab, V domains shown) VH: EVQLVESGGGLVKPGGSLKLSCAASGYTFTSYVMHWVRQAPGKGLEWIGYINPYNDGTKYNEKFQGRVTISSDKSISTAYMELSSLRSEDTAMYYCARGTYYYGTRVFDYWGQGTLVTVSS VL: DIVMTQSPATLSLSPGERATLSCRSSKSLQNVNGNTYLYWFQQKPGQSPQLLIYRMSNLNSGVPDRFSGSGSGTEFTLTISSLEPEDFAVYYCMQHLEYPITFGAGTKLEIKR	2.53	4.4	5.8	23	10.6	4.65	3.58
CD19 BRIDGE variant B9 (Fab, V domains shown) VH: EVQLVESGGGLVKPGGSLKLSCAASGYTFTSYVMHWVRQAPGKGLEWIGYINPYNDGTKYNEKFQGRVTISSDKSISTAYMELSSLRSEDTAMYYCARGTYYYGTRVFDYWGQGTLVTVSS VL: DIVMTQSPATLSLSPGERATLSCRSSKSLQNVNGNTYLYWFQQKPGQSPQLLIYRMSNLNSGVPDRFSGSGSGTEFTLTISSLEPEDFAVYYCMQHLEYPITFGAGTKLEIKR	2.32	4.1	5.3	10.5	4.82	3.9	3
